In this data set the test system is Escherichia coli TOP10. The data set is described as follows: shrunken log2 fold change of peptide-encoding DNA abundance (4.5 h post-induction vs induction); higher = less antimicrobial activity (less host growth inhibition). To be noted: time post-induction: 4.5 h; library: site-saturation at positions 5, 18, 19, 20.
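Note: peptides expressed intracellularly from a pBAD plasmid library in pooled LB shake-flask culture, induced with 0.3% L-arabinose, DNA abundance read by NGS, three biological replicates, DESeq2 with apeglm shrinkage.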

For RRIRYRPPRLPRPRPRPRIWPRP, the “shrunken log2 fold change” value was -0.0174.

RRIRCRPPRLPRPRPRPVTVPRP: the “shrunken log2 fold change” value is -0.484.

On to RRIRSRPPRLPRPRPRPGYNPRP, for which the “shrunken log2 fold change” value is -0.846.

Turning to RRIRCRPPRLPRPRPRPTPRPRP, the “shrunken log2 fold change” value is 0.987.

In the case of RRIRQRPPRLPRPRPRPHCAPRP, the “shrunken log2 fold change” value is 0.0396.

As to RRIRPRPPRLPRPRPRPESTPRP, the “shrunken log2 fold change” value stood at 0.118.

For the sequence RRIRVRPPRLPRPRPRPQWQPRP, the “shrunken log2 fold change” value worked out at 0.0741.

Regarding RRIRCRPPRLPRPRPRPKGKPRP, the “shrunken log2 fold change” value stood at 0.328.

Consider RRIRMRPPRLPRPRPRPALPPRP, for which the “shrunken log2 fold change” value came out at 0.363.

As for RRIRTRPPRLPRPRPRPNQPPRP, the “shrunken log2 fold change” value stood at 0.0619.

Turning to RRIRLRPPRLPRPRPRPFKWPRP, the “shrunken log2 fold change” value was 0.00989.

For the sequence RRIRYRPPRLPRPRPRPNSEPRP, the “shrunken log2 fold change” value is -0.589.

With RRIRIRPPRLPRPRPRPTHLPRP, the “shrunken log2 fold change” value is -0.0268.

Consider RRIRLRPPRLPRPRPRPLDCPRP, for which the “shrunken log2 fold change” value turned out to be 0.0132.

Consider RRIRWRPPRLPRPRPRPDSQPRP, for which the “shrunken log2 fold change” value was -0.0844.

Turning to RRIRQRPPRLPRPRPRPEGHPRP, the “shrunken log2 fold change” value is 0.00489.

Turning to RRIRMRPPRLPRPRPRPNYEPRP, the “shrunken log2 fold change” value was -0.122.

On to RRIRHRPPRLPRPRPRPNVYPRP, for which the “shrunken log2 fold change” value was -0.149.

For the sequence RRIRYRPPRLPRPRPRPNECPRP, the “shrunken log2 fold change” value came out at 0.0256.

Consider RRIRDRPPRLPRPRPRPIMCPRP, for which the “shrunken log2 fold change” value is -0.0425.

In the case of RRIRFRPPRLPRPRPRPEVNPRP, the “shrunken log2 fold change” value turned out to be 0.0557.

With RRIRFRPPRLPRPRPRPRARPRP, the “shrunken log2 fold change” value turned out to be 0.661.

As to RRIRYRPPRLPRPRPRPPMVPRP, the “shrunken log2 fold change” value is -0.35.

Take RRIRIRPPRLPRPRPRPEFFPRP: the “shrunken log2 fold change” value was found to be 0.179.

For the sequence RRIRERPPRLPRPRPRPCPLPRP, the “shrunken log2 fold change” value was -0.265.

As to RRIRERPPRLPRPRPRPMKSPRP, the “shrunken log2 fold change” value is -0.163.

On to RRIRERPPRLPRPRPRPSHHPRP, for which the “shrunken log2 fold change” value was -0.73.

RRIRVRPPRLPRPRPRPHMVPRP: the “shrunken log2 fold change” value was -0.53.

Regarding RRIRIRPPRLPRPRPRPNASPRP, the “shrunken log2 fold change” value is 0.109.

Regarding RRIRVRPPRLPRPRPRPCKFPRP, the “shrunken log2 fold change” value is 0.01.

For RRIRNRPPRLPRPRPRPSKKPRP, the “shrunken log2 fold change” value is -0.0392.

Take RRIRVRPPRLPRPRPRPFVMPRP: the “shrunken log2 fold change” value was found to be 0.0296.

Take RRIRARPPRLPRPRPRPKENPRP: the “shrunken log2 fold change” value stood at 0.379.

With RRIRARPPRLPRPRPRPVTNPRP, the “shrunken log2 fold change” value turned out to be 0.275.

With RRIRDRPPRLPRPRPRPVPIPRP, the “shrunken log2 fold change” value worked out at 0.245.

On to RRIRHRPPRLPRPRPRPRGKPRP, for which the “shrunken log2 fold change” value is -0.241.

In the case of RRIRNRPPRLPRPRPRPDSMPRP, the “shrunken log2 fold change” value was -0.0386.

Consider RRIRARPPRLPRPRPRPHIRPRP, for which the “shrunken log2 fold change” value was -0.0962.

In the case of RRIRVRPPRLPRPRPRPDCCPRP, the “shrunken log2 fold change” value was -0.0439.

Turning to RRIRQRPPRLPRPRPRPFQSPRP, the “shrunken log2 fold change” value is -0.0102.

In the case of RRIRLRPPRLPRPRPRPGEGPRP, the “shrunken log2 fold change” value was -0.036.

For the sequence RRIRRRPPRLPRPRPRPGNTPRP, the “shrunken log2 fold change” value is -0.142.

As to RRIRVRPPRLPRPRPRPRKDPRP, the “shrunken log2 fold change” value stood at 0.0324.

With RRIRHRPPRLPRPRPRPLCSPRP, the “shrunken log2 fold change” value was -0.285.

Regarding RRIRARPPRLPRPRPRPTFDPRP, the “shrunken log2 fold change” value was found to be 0.399.

In the case of RRIRDRPPRLPRPRPRPMWQPRP, the “shrunken log2 fold change” value worked out at 0.00699.

As to RRIRSRPPRLPRPRPRPWHLPRP, the “shrunken log2 fold change” value was -0.273.

On to RRIRTRPPRLPRPRPRPYSIPRP, for which the “shrunken log2 fold change” value amounted to 0.015.

As to RRIRSRPPRLPRPRPRPDFPPRP, the “shrunken log2 fold change” value turned out to be 0.0768.

As to RRIRQRPPRLPRPRPRPFNYPRP, the “shrunken log2 fold change” value is -0.304.

Take RRIRARPPRLPRPRPRPPAIPRP: the “shrunken log2 fold change” value is 0.382.

As for RRIRRRPPRLPRPRPRPSWNPRP, the “shrunken log2 fold change” value is -0.157.

RRIRCRPPRLPRPRPRPTAPPRP: the “shrunken log2 fold change” value turned out to be 0.826.

Regarding RRIRQRPPRLPRPRPRPRNEPRP, the “shrunken log2 fold change” value was -0.199.

In the case of RRIRDRPPRLPRPRPRPCLMPRP, the “shrunken log2 fold change” value was 0.209.

For RRIRRRPPRLPRPRPRPKGMPRP, the “shrunken log2 fold change” value stood at 0.218.

As for RRIRFRPPRLPRPRPRPMEHPRP, the “shrunken log2 fold change” value was -0.416.

On to RRIRCRPPRLPRPRPRPVMKPRP, for which the “shrunken log2 fold change” value is -0.342.

RRIRVRPPRLPRPRPRPTNYPRP: the “shrunken log2 fold change” value is -0.519.

As to RRIRSRPPRLPRPRPRPNPDPRP, the “shrunken log2 fold change” value was -0.123.

As to RRIRPRPPRLPRPRPRPFLQPRP, the “shrunken log2 fold change” value was -0.207.

In the case of RRIRVRPPRLPRPRPRPDFAPRP, the “shrunken log2 fold change” value came to 0.147.

RRIRSRPPRLPRPRPRPLKHPRP: the “shrunken log2 fold change” value is -0.39.

For the origin of these results see the supplement of paper PMC9112550, “Optimization of the antimicrobial peptide Bac7 by deep mutational scanning” (BMC Biology, 2022).
